This data set deals with the molecule itself. Briefly: mass photometry, R534* homodimer.

B1: human AsnRS R534∗ (ΔR534-P548), N-terminal 6xHis tag (enzyme, UniProt O43776 1-533, looked up)
chain: MVLAELYVSDREGSDATGDGTKEKPFKTGLKALMTVGKEPFPTIYVDSQKENERWNVISKSQLKNIKKMWHREQMKSESREKKEAEDSLRREKNLEEAKKITIKNDPSLPEPKCVKIGALEGYRGQRVKVFGWVHRLRRQGKNLMFLVLRDGTGYLQCVLADELCQCYNGVLLSTESSVAVYGMLNLTPKGKQAPGGHELSCDFWELIGLAPAGGADNLINEESDVDVQLNNRHMMIRGENMSKILKARSMVTRCFRDHFFDRGYYEVTPPTLVQTQVEGGATLFKLDYFGEEAFLTQSSQLYLETCLPALGDVFCIAQSYRAEQSRTRRHLAEYTHVEAECPFLTFDDLLNRLEDLVCDVVDRILKSPAGSIVHELNPNFQPPKRPFKRMNYSDAIVWLKEHDVKKEDGTFYEFGEDIPEAPERLMTDTINEPILLCRFPVEIKSFYMQRCPEDSRLTESVDVLMPNVGEIVGGSMRIFDSEEILAGYKREGIDPTPYYWYTDQRKYGTCPHGGYGLGLERFLTWILNRYHI
notes: also called His-R534∗; R534∗ mutant; source: E. coli BL21(DE3) or BL21 ClearColi, purified (Ni-NTA, heparin, SEC); not shown: His6, N-terminal, kept
Take B1: the affinity, expressed as Kd, was 54.4 nM.

Source of the values: PMC12513289 (The Journal of Biological Chemistry, 2025).
